Source: publication PMC12695944, “Geminin inhibits DNA replication licensing by sterically blocking CDT1-MCM2 interactions” (Nature Communications, 2025)
Like-named read-outs stand apart in the source and are kept apart here.

T1: CDT1^ΔN (N-terminally truncated CDT1^158-546) (human, UniProt Q9H211 158-546)
T1 construct: CDT1, human, UniProt Q9H211, residues 158-546 (lacks the unstructured N-terminus); Plasmid is in Supplementary Data 1; The His tag serves for capture on the NTA chip in the SPR with peptides; also called standard CDT1 construct; source: E. coli BL21 (DE3), purified (HisTrap Excel, POROS HS, Superdex 200); not shown: His6, N-terminal, kept
T1 sequence (looked up): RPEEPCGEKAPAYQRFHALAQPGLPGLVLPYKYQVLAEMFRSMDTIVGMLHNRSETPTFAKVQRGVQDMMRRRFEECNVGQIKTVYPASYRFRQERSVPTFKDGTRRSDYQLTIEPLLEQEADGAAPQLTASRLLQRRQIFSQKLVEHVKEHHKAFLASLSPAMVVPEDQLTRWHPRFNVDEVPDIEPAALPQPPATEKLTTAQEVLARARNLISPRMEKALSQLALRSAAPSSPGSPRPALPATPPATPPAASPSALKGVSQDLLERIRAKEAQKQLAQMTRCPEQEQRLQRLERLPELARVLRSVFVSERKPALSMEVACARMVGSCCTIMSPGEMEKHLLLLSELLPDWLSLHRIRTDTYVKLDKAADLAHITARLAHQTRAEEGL

T2: CDT1^ΔN (N-terminally truncated CDT1^158-546) (human, UniProt Q9H211 158-546)
T2 chain: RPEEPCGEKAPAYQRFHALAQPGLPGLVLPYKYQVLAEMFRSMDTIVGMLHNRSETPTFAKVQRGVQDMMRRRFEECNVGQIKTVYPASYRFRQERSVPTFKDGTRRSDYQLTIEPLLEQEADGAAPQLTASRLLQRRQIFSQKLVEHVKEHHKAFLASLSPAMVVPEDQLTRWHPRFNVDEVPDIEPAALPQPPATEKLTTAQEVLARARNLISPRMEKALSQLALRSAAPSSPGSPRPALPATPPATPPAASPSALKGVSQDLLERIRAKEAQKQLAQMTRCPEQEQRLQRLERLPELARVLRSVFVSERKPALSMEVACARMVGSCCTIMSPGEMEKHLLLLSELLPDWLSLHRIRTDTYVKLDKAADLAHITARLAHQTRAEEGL


Experiments:
[1] = molecular target: T1, CDT1^ΔN (N-terminally truncated …); experiment: SPR; multi-cycle; CDT1^ΔN captured by its N-terminal His tag on an NTA chip; geminin peptides 0.49–250 nM (two-fold steps); 25 °C; 10 mM HEPES, 500 mM NaCl, 50 µM EDTA, 1 mM TCEP-HCl, 0.05% Tween-20, pH 8.0; 1:1 kinetic model of analyte dimer:CDT1, steady-state 1:1 model for Gem^96–160 and Gem^102–160; conditions: both partners purified
[2] = molecular target: the molecule itself; experiment: SEC-MALS; Superdex 200 Increase 10/300 GL; peptides 500–1000 µM, 100 µL injected; 10 mM HEPES, 150 mM NaCl, 1 mM TCEP-HCl, pH 7.5; 0.25 mL/min
[3] = molecular target: T2, CDT1^ΔN (N-terminally truncated …); experiment: SPR
[4] = molecular target: T1, CDT1^ΔN (N-terminally truncated …); experiment: SPR; CDT1^ΔN with Gem^LINK; steady-state 1:1 binding model; chip and cycle format not stated for Gem^LINK; 25 °C; 10 mM HEPES, 500 mM NaCl, 50 µM EDTA, 1 mM TCEP-HCl, 0.05% Tween-20, pH 8.0; conditions: both partners purified
[5] = molecular target: T2, CDT1^ΔN (N-terminally truncated …); experiment: SPR
[6] = molecular target: T2, CDT1^ΔN (N-terminally truncated …); experiment: SPR
[7] = molecular target: T2, CDT1^ΔN (N-terminally truncated …); experiment: SPR
[8] = molecular target: T2, CDT1^ΔN (N-terminally truncated …); experiment: SPR

Binder | binding result [1] | Kd [1] [nM] | stoichiometry N [2] | further results
Gem^96–160 (geminin coiled-coil peptide) (peptide, UniProt O75496 96-160, looked up, geminin, human, UniProt O75496, residues 96-160 (the full coiled-coil); Made on Rink amide resin; source: synthetic peptide) peptide: Ac-SQYWKEVAEKRRKALYEALKENEKLHKEIEQKDNEIARLKKENKELAEVAEHVQYMAELIERLNG-NH2 | binds |  | 2 | Kd [3]: 21 nM
Gem^LINK (geminin with a short glycine linker between the two CDT1 interaction interfaces) (natural protein, Full-length geminin with a 5x Gly insertion between I90 and K91 (K96 in post-insertion numbering; no deletion, since mutant residues 76-165 correspond to WT 76-160). Homodimer assumed as for wild …) MNPSMKQKQEEIKENIKNSSVPRRTLKMIQPSASGSLVGRENELSAGLSKRKHRNDHLTSTTSSPGVIVPESSENKNLGGVTQESFDLMIGGGGGKENPSSQYWKEVAEKRRKALYEALKENEKLHKEIEQKDNEIARLKKENKELAEVAEHVQYMAELIERLNGEPLDNFESLDNQEFDSEEETVEDSLVEDSEIGTCAEGTVSSSTDAKPCI |  |  |  | Kd [4]: 38 nM
Ac-SQYWKEVAEKRRKALYEALKENEKLHKEIEQKDNEIARLKKENKELAEVA-NH2 (peptide, UniProt O75496 96-145, looked up, geminin, human, UniProt O75496, residues 96-145; Made on Rink amide resin; source: synthetic peptide) [Gem^96–145] |  | 38 | 2 | koff [7]: 0.031 s⁻¹
Gem^82–145 (peptide, UniProt O75496 82-145, looked up, geminin, human, UniProt O75496, residues 82-145; Made on Rink amide resin; source: synthetic peptide) peptide: Ac-TQESFDLMIKENPSSQYWKEVAEKRRKALYEALKENEKLHKEIEQKDNEIARLKKENKELAEVA-NH2 |  | 5.8 | 2 | koff [8]: 0.0032 s⁻¹
Ac-SQYWKEVAEKRRKALYEALKENEKLHKEIEQKDNEIARLK-NH2 (peptide, UniProt O75496 96-135, looked up, Made on Rink amide resin; source: synthetic peptide) [Gem^96–135 (minimal CDT1-binding peptide)] | binds |  | 2 | koff [7]: 0.024 s⁻¹; Kd [3]: 22 nM
Gem^90–145 (peptide, UniProt O75496 90-145, looked up, geminin, human, UniProt O75496, residues 90-145; Made on Rink amide resin; source: synthetic peptide) peptide: Ac-IKENPSSQYWKEVAEKRRKALYEALKENEKLHKEIEQKDNEIARLKKENKELAEVA-NH2 |  | 93 | 2 | koff [8]: 0.045 s⁻¹
Gem^76–145 (chemically synthesised peptide) (peptide, UniProt O75496 76-145, looked up, geminin, human, UniProt O75496, residues 76-145; Made on Rink amide resin; The recombinant recGem^76–145 is another molecule, used only in licensing assays; source: synthetic peptide) peptide: Ac-KNLGGVTQESFDLMIKENPSSQYWKEVAEKRRKALYEALKENEKLHKEIEQKDNEIARLKKENKELAEVA-NH2 |  | 5.7 | 2 | koff [8]: 0.0034 s⁻¹
Gem^76–140 (peptide, UniProt O75496 76-140, looked up, geminin, human, UniProt O75496, residues 76-140; Made on Rink amide resin; source: synthetic peptide) peptide: Ac-KNLGGVTQESFDLMIKENPSSQYWKEVAEKRRKALYEALKENEKLHKEIEQKDNEIARLKKENKE-NH2 | binds |  | 2 | koff [5]: 0.0033 s⁻¹; Kd [6]: 11 nM

The next lines start with results.

binding result [1] | Kd [1] [nM] | Binder | stoichiometry N [2] | further results
 | 2800 | Gem^102–160 (peptide, UniProt O75496 102-160, looked up, geminin, human, UniProt O75496, residues 102-160; Made on Rink amide resin; source: synthetic peptide) peptide: Ac-VAEKRRKALYEALKENEKLHKEIEQKDNEIARLKKENKELAEVAEHVQYMAELIERLNG-NH2 | 2 | 
binds |  | Gem^76–135 (peptide, UniProt O75496 76-135, looked up, Made on Rink amide resin; source: synthetic peptide) peptide: Ac-KNLGGVTQESFDLMIKENPSSQYWKEVAEKRRKALYEALKENEKLHKEIEQKDNEIARLK-NH2 | 2 | koff [5]: 0.0029 s⁻¹; Kd [6]: 7 nM
binds |  | Ac-SQYWKEVAEKRRKALYEALKENEKLHKEIEQKDNEIARLKKENKE-NH2 (peptide, UniProt O75496 96-140, looked up, geminin, human, UniProt O75496, residues 96-140; Made on Rink amide resin; source: synthetic peptide) [Gem^96–140] | 2 | koff [7]: 0.022 s⁻¹; Kd [3]: 32 nM
